According to the supplement of paper PMC9170038:

Test system: MS2 coat protein
Experiment: apparent KD of MS2 coat protein; designed switch direction (-1 OFF switch, 1 ON switch): -1; higher = weaker reporter binding
Summary of the method: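 Apparent KD, taken as the median over clusters for each design, was obtained by curve-fitting normalised cluster fluorescence. Designed RNA switches had been transcribed on Illumina chips by stalled E. coli RNA polymerase and titrated with SNAP-549-labelled MS2 coat protein, doubling from 0.7 or 1.5 nM to 3 µM.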

[1] = Eterna round: R95, input ligand: microRNA oligo, concentration not stated
[2] = input ligand: microRNA oligo, concentration not stated
[3] = Eterna round: R95, input ligand: FMN 200 uM
[4] = Eterna round: R95, input ligand: none

Sequence | apparent KD of MS2 coat protein [1] [nM] | apparent KD of MS2 coat protein (input ligand: FMN 200 uM) [nM] | apparent KD of MS2 coat protein (input ligand: none) [nM] | further results
CAGGACAGAGGAUAUACAUAGAUACAGAUUCAUGUAGAACUACAUGAGGAUCACCCAUGUAGAAGGCUGACCUG [Fiskers Ex 2 - 4] (puzzle: Exclusion 2) | 27.8 |  |  | 
CAGGAUAGAGGAUAUACAUAGAUACAGAUUCAUGUGAUCCUACAUGAGGAUCACCCAUGUAGAAGGCUAACCUG [Fiskers Ex 2 - 24] (puzzle: Exclusion 2) | 306 |  |  | 
CAGGAUAGAGGAUAUGCAUAGAUACAGAUUCAUGUAAUCCUACAUGAGGAUCACCCAUGUAGAAGGCUAUCCUG [Fiskers Ex 2 - 17] (puzzle: Exclusion 2) | 14.7 |  |  | 
CAGGGCAUGCGAGGAUAUAGCAACAUGAGGAUCACCCAUGUAUAAGGGUGUCCUAGGCAUGCGCGCUAGAAGGCGCUGGUUCUC [Onreusve] (Eterna round: R96, puzzle: Exclusion NG 2) |  | 431 | 75.5 | apparent KD of MS2 coat protein [2]: 18.9 nM
CAGUACAGAGGAUAUACAUGAGGAUCACCCAUGUGUUUCAGGUACGAAAGUACCGAAUGUAGAAGGCUGUACUG [jl-ex3-4.25 salish99 mod] (Eterna round: R97, puzzle: Exclusion 3) |  | 244 | 25.6 | 
CAGUACAGAGGAUAUACAUGAGGAUCACCCAUGUGUUUCAGGUACGAGAGUACCGAGUGUAGAAGGCUGUACUG [jl-ex3-4.28 salish99 mod] (Eterna round: R97, puzzle: Exclusion 3) |  | 244 | 38.1 | 
CAGUACUGAGGAUAUACAUGAGGAUCACCCAUGUGAGAGAUACUAGUGAGGUCGAUUAGUAGAAGGCAGUACUG [Mat X3R4 m3] (Eterna round: R97, puzzle: Exclusion 3) |  | 856 | 35.7 | 
CAGUACUGAGGAUAUACAUGAGGAUCACCCAUGUGUGUGAGAUUUGUGUGGUUGUUUUGUAGAAGGCGGUGCUG [JR_Ex3_Sub031] (Eterna round: R97, puzzle: Exclusion 3) |  | 19.1 | 91.2 | 
CAGUACUGAGGAUAUACAUGAGGAUCACCCAUGUGUUUUCUACUAGGAAACUAGGUAUGUAGAAGGCAGUACUG [Omei Ex3 Mod of Eli 4.27 v3] (Eterna round: R97, puzzle: Exclusion 3) |  | 194 | 22.9 | 
CAGUACUGAGGAUAUACAUGAGGAUCACCCAUGUUGAGAUGAAAAGAAAGAGUUAAAUGUAGAAGGCGGUGCUG [JR_Ex3_Sub047] (Eterna round: R97, puzzle: Exclusion 3) |  | 523 | 71.1 | 
CAGUACUGAGGAUAUACAUGAGGAUCACCCAUGUUGAGAUGAAAAGAAAUAGUUUCAUGUAGAAGGCGGUGCUG [JR_Ex3_Sub048] (Eterna round: R97, puzzle: Exclusion 3) |  | 365 | 118 | 
CAUACACAUGAGGAUCACCCAUGUGAGGAUAUGCGUACGUUGUCCGUAGGCGACGUGCGCAGAAGGCGCUUGGU [JL-ex1-3.18 Eli mod] (puzzle: Exclusion 1) | 49 |  |  | 
CAUACUCAAGUCAGGAUAUACAGUCGGAUACGGGUGUAGAAGGGACAUGAGGAUCACCCAUGUAGAGAGUAAAG [EX-4 Malc #23] (puzzle: Brourd's mod of Exclusion 4) | 31.1 |  |  | apparent KD of MS2 coat protein [3]: 87 nM; apparent KD of MS2 coat protein [4]: 53.8 nM
CAUAUGUUAGGAUAUGCACAGAUCUCCGAAAGGAGAUCUGUGCAGAAGGAACAUGAGGAUCACCCAUGUUGAUG [Mod of Brourd 17 - Jieux - Exclusion 4] (Eterna round: R97, puzzle: Exclusion 4) |  | 176 | 34.2 | 
CAUGAGGGAGGAUAUACAUGAGGAUCACCCAUGUAACUGGGAGUAGUUCUUCGUAGUCGUAGAAGGCCUGAGGG [Eternabot (L1) Solution 14] (Eterna round: R97, puzzle: Exclusion 3) |  | 242 | 723 | 
CAUGAUCUUCGGAUCAUGUACAUGAGGAUCACCCAUGUGACGAGUUACAUGAAAAACAAGCUUUUUGCUCGUCUUAU [Sensor v3 - Turn-off variant 1 - 9] (puzzle: Sensor v3, turn-off variant 1) | 121 |  |  | apparent KD of MS2 coat protein [3]: 42.1 nM; apparent KD of MS2 coat protein [4]: 49.8 nM
CAUGAUUGGGAAGGAUAUUGACCUAGUUAGCGCCGAGAAGGUCCCUGUCACAUGAGGAUCACCCAUGUGAGUCUGGUGUUCGAG [Ex NG1 #95] (Eterna round: R96, puzzle: Exclusion NG 1) |  | 29.7 | 21.6 | apparent KD of MS2 coat protein [2]: 17.7 nM

Sequence | apparent KD of MS2 coat protein [1] [nM] | apparent KD of MS2 coat protein (input ligand: FMN 200 uM) [nM] | apparent KD of MS2 coat protein (input ligand: none) [nM] | further results
CAUGAUUUUCGGAAAAUGUACAUGAGGAUCACCCAUGUGACGAGUUACAUGAAAAACAAGCUUUUUGCUCGUCUUAU [Sensor v3 - Turn-off variant 1 - 11] (puzzle: Sensor v3, turn-off variant 1) | 24.8 |  |  | apparent KD of MS2 coat protein [3]: 102 nM; apparent KD of MS2 coat protein [4]: 188 nM
CAUGUGCGAAAGGAUAUGGCCCGCGGAUCAGCUCCAGAAGGUUCGACAUGAGGAUCACCCAUGUGAUCUGGUAA [Eternabot (L1) Solution 61] (Eterna round: R97, puzzle: Exclusion 6) |  | 139 | 369 | 
CAUGUGUUAGGAUAUGCACAGAUCUCCUAAUGGAGAUCUGUGCAGAAGGAACAUGAGGAUCACCCAUGUUGAUG [Mod of Brourd 13 - Jieux - Exclusion 4] (Eterna round: R97, puzzle: Exclusion 4) |  | 129 | 35.4 | 
CAUUAACAUGAGGAUCACCCAUGUGAGGAUAUGGAUACAUAAUACUACUACAUAAAUACCAGAAGGCGCAUACU [Maybaline] (puzzle: Exclusion 1) | 28 |  |  | apparent KD of MS2 coat protein [3]: 31.4 nM; apparent KD of MS2 coat protein [4]: 55.1 nM
CAUUACUGCAAGCUUUGGGACAUGAGGAUCACCCAUGUUCGUCUUAUUGAUCUAGGUACGCUGACGUACCUAGAUCU [JL-sv1-2.27 Brourd mod] (puzzle: Sensor v3, turn-off variant 1) | 28.9 |  |  | apparent KD of MS2 coat protein [3]: 17 nM; apparent KD of MS2 coat protein [4]: 15.4 nM
CCAAGCUUAUUCAUUAACCACAUGAGGAUCACCCAUGUCUAGGCAAUUAUGACUUGCCCAUCAGGUGCUCGUCUUAU [Sensor-V1 #33] (Eterna round: R97, puzzle: Sensor, turn-off variant 1) |  | 68.7 | 72.3 | 
CCAAGCUUGUUCAUUAUCCACAUGAGGAUCACCCAUGUCUUGGCAAUUAUGACCUGCCCGUCAGGAGCUCGUCUUAU [Sensor-V1 #37] (Eterna round: R97, puzzle: Sensor, turn-off variant 1) |  | 316 | 346 | 
CCAAGCUUUUUCAUUAACAACAUGAGGAUCACCCAUGUGUAAGCAAUUAUGUUUGGGCUCUUUAGUGCUCGUCUUAU [JR_STOV1_Sub042] (Eterna round: R97, puzzle: Sensor, turn-off variant 1) |  | 17.4 | 16.7 | 
CCAAGCUUUUUCAUUAACAACAUGAGGAUCACCCAUGUUUAAGCUAUUACUUUUGGGCUCUUUAGUGCUAGUCUUAU [JR_STOV1_Sub039] (Eterna round: R97, puzzle: Sensor, turn-off variant 1) |  | 18.6 | 19.4 | 
CCACGACAUGAGGAUCACCCAUGUGAGGAUAUGGCCUGAAAAGCGUGAGCAGUAUCAAUCAGAAGGCGCGUGGG [salish99_ex1_r4_061] (Eterna round: R97, puzzle: Exclusion 1) |  | 116 | 76.4 | 
CCAGAUGCAGGAUAUGUAAAAUUUGACAUGAGGAUCACCCAUGUAGAUCCUGAAUUUCCUGCAGAAGGGCAUCUGG [Mat - Exclusion 5 - Eli Mod - D20] (Eterna round: R97, puzzle: Exclusion 5) |  | 288 | 105 | 
CCAGCAAAUGUAAGGAUAUGCUGGUCCUUGGAUCAGCAGAAGGUACAUGAGGAUCACCCAUGUAGGUAAGCUGG [Eli bmx4 4.63] (Eterna round: R97, puzzle: Brourd's mod of Exclusion 4) |  | 118 | 23.5 | 
CCAGCGUAUGUUAGGAUAUGCUGGUCCUUGGAUCAGCAGAAGGAACAUGAGGAUCACCCAUGUAGAAUCGUUGG [Mod of JL 15 - Jieux - Brourd's mod of Exclusion 4] (Eterna round: R97, puzzle: Brourd's mod of Exclusion 4) |  | 35 | 20.3 | 
CCAGGCUGUGUGAGGAUAUGCUGGUCCUUGGAUCAGCAGAAGGCACAUGAGGAUCACCCAUGUGAAAAGCUUGG [Mat - Exclusion 4 - JL Mod - D91] (puzzle: Brourd's mod of Exclusion 4) | 16.2 |  |  | 
CCAGUGUAAGGAUAUGUAUACGUCUCUCUGGUAUGAGGGCGGCAGAAGGUACAUGAGGAUCACCCAUGUCAUAU [Eternabot (L2) Solution 94] (Eterna round: R97, puzzle: Exclusion 4) |  | 37.3 | 22.5 | 
CCAUAGGGAGGAUAUCCAAUAUAUGACAUGAGGAUCACCCAUGUUUCCACUCGUACCUCCGGAGAAGGCCCAUACC [Ex5 #9] (Eterna round: R97, puzzle: Exclusion 5) |  | 22 | 27 | 
CCAUGUUAGCAGGAUAUGCUAUUAAUCUUUUAUGCAGAAGGGCUUACAUGAGGAUCACCCAUGUAUUAAGUCUU [JR_E6_Sub076] (puzzle: Exclusion 6) | 11.9 |  |  | 
